In publication PMC6462529:

Experiments:
2G12 = assay: D7324-capture ELISA; conditions: PGT145-purified trimers; SOSIP.664 AUC-value printed 2.89
CH01 = assay: D7324-capture ELISA; conditions: PGT145-purified trimers; SOSIP.664 AUC-value printed 0.32
CH103 = assay: D7324-capture ELISA; conditions: PGT145-purified trimers; SOSIP.664 AUC-value printed 1.34
F105 = assay: D7324-capture ELISA; conditions: PGT145-purified trimers; SOSIP.664 AUC-value printed 0.12
PG16 = assay: D7324-capture ELISA; conditions: PGT145-purified trimers; SOSIP.664 AUC-value printed 0.55
PG9 = assay: D7324-capture ELISA; conditions: PGT145-purified trimers; SOSIP.664 AUC-value printed 1.70
PGT121 = assay: D7324-capture ELISA; conditions: PGT145-purified trimers; SOSIP.664 AUC-value printed 1.60
PGT145 = assay: D7324-capture ELISA; conditions: PGT145-purified trimers; SOSIP.664 AUC-value printed 0.68
PGT151 = assay: D7324-capture ELISA; conditions: PGT145-purified trimers; SOSIP.664 AUC-value printed 0.75
VRC26.09 = assay: D7324-capture ELISA; conditions: PGT145-purified trimers; SOSIP.664 AUC-value printed 0.49
gl-CH01 = assay: D7324-capture ELISA; conditions: PGT145-purified trimers; SOSIP.664 AUC-value printed 0.14
gl-PG16 = assay: D7324-capture ELISA; conditions: PGT145-purified trimers; SOSIP.664 AUC-value printed 0.01
gl-PG9 = assay: D7324-capture ELISA; conditions: PGT145-purified trimers; SOSIP.664 AUC-value printed 0.14
[1] = biological target: HIV-1 LAI Env (parental LAI virus) (HIV-1 (isolate LAI)) (UniProt P03377)

| Substance | ratio to parent (2G12) | ratio to parent (CH01) | ratio to parent (CH103) | ratio to parent (F105) | ratio to parent (PG16) | ratio to parent (PG9) | ratio to parent (PGT121) | ratio to parent (PGT145) | ratio to parent (PGT151) | ratio to parent (VRC26.09) | ratio to parent (gl-CH01) | ratio to parent (gl-PG16) | ratio to parent (gl-PG9) | IC50 of neutralization of the parental LAI virus [1] [µg/mL] |
| --- | --- | --- | --- | --- | --- | --- | --- | --- | --- | --- | --- | --- | --- | --- |
| BG505 SOSIP.664-D7324 trimer E153C; R178C; G152E | 1 | 1.9 | 2.3 | 4.7 | 1.7 | 2 | 1.5 | 1 | 1 | 1.3 | 2.1 | 3.9 | 1.4 | – |
| PG9 (antibody) | – | – | – | – | – | – | – | – | – | – | – | – | – | 2 |
